The results in this text go back to PMC3813556, “Probing the Dynamic Process of Encapsulation in Escherichia coli GroEL” (PLoS ONE, 2013).

Assay [1] deals with GroEL SR-1 RW (E. coli) (UniProt P0A6F5). Put plainly: FRET or BRET; stopped-flow intermolecular FRET from the apical domain tryptophan of the GroEL mutant to prebound acid-unfolded AEDANS-GroELwt (equimolar); decrease of FRET after addition of ATP and GroES. (In general: BRET reads energy transfer from a luciferase to a nearby fluorophore.)
Assay [2] concerns the target T1, GroEL R231W (E. coli, UniProt P0A6F5 1-548, R231W).
T1 construct: GroEL, E. coli, with a unique tryptophan in the apical domain; Double ring 14-mer; copies: 14
Put plainly: stopped-flow tryptophan fluorescence; GroEL with prebound Gdn-HCl-unfolded MDH (5 min pre-incubation at 25°C); 0.625 µM GroEL oligomer; 1 mM ATP without or with equimolar GroES. The settings on record: both partners purified.

On to “AEDANS-labelled, acid-unfolded wild type GroEL (from UniProt P0A6F5 1-548) (natural protein)”, for which, in assay [1], the k of PhaseFRET2 (rate of release of the bound unfolded protein) turned out to be 0.21 s⁻¹ and the k of PhaseFRET (rate of release of the bound unfolded protein) was found to be 4.1 s⁻¹.

B1: GroES (natural protein, E. coli, UniProt P0A6F9 1-97, looked up)
chain: MNIRPLHDRVIVKRKEVETKSAGGIVLTGSAAAKSTRGEVLAVGNGRILENGEVKPLDVKVGDIVIFNDGYGVKSEKIDNEEVLIMSESDILAIVEA
notes: GroES, co-chaperonin of the E. coli chaperonin GroE; also called wild type GroES; co-chaperonin GroES
On to B1, for which the binding result in assay [2] is “binds”.
